This note sets out measurements from patent US20240076389A1 (NATIONAL RESEARCH COUNCIL OF CANADA, published 2024).

Assay [1] has as its target T1, human AXL expressed on the cell surface of tumor cell lines (human, UniProt P30530 26-894).
T1 construct: whole, on cells; also called cell surface-expressed AXL; cell-based AXL
T1 sequence (looked up): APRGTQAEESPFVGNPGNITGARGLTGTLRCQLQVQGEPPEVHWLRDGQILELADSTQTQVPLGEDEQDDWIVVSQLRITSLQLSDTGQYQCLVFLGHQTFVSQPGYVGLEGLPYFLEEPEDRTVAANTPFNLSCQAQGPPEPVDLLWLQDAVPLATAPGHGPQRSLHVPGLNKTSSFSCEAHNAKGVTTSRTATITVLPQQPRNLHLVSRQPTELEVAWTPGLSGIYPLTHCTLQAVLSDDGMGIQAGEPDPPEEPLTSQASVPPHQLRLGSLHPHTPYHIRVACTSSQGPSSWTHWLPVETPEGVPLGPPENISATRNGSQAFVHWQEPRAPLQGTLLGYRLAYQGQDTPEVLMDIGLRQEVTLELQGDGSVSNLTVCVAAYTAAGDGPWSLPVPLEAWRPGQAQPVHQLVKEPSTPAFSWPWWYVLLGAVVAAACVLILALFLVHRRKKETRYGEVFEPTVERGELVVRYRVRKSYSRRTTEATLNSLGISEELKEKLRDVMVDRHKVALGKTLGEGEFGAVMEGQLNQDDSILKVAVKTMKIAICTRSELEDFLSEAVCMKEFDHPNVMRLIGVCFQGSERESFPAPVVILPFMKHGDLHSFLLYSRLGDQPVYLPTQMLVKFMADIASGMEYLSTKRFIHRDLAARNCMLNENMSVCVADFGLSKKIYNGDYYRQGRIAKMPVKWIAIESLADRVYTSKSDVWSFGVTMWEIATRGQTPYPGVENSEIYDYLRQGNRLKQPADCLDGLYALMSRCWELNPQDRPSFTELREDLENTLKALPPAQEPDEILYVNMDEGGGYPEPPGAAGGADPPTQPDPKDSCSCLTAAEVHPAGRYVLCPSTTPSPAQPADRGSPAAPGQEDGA
The assay is described as follows: FACS on MDA-MB-231 luciferase cells, apparent Kd. How it is done: (§1) FACS binding assay. Adherent cells were dissociated with non-enzymatic Sigma Cell Dissociation Solution (Cat. No. C5789). Cells suspensions were added to polypropylene, V-bottom 96-well plates and incubated for 2 hours on ice with primary antibodies at concentrations ranging from 100 nM to 0.001 nM or at a single dose of 100 nM (for the non-specific control). After incubation and washes, cells were incubated with fluorescently labeled secondary antibody (Alexa Fluor® 488 anti-human IgG from Jackson Cat. No 709-546-098) for 1 hour on ice, then washed. Cell viability was determined using Fixable viability dye 450 (20 min on ice). Stained cells were fixed in 1% formaldehyde at 4° C. and stored at 4° C. until acquisition which was performed the next day.
(§2) Binding of recombinant chimeric Abs to three cell lines was assessed by FACS as described above. The apparent Bmax and Kd determination is shown below in Table 14.

Assay [2] addresses T1, human AXL expressed on the cell surface …. In words: FACS on SKOV3 cells, apparent Kd. How it is done:
as §1, §2

Assay [3] addresses T2, recombinant cynomolgus AXL extracellular domain (cynomolgus).
T2 construct: range 1-449; also called Cyno AXL; cyno AXL ECD
The assay is described as follows: SPR Biacore T200, mAb captured on anti-Fc, AXL ECD flowed, multi-cycle kinetics. As for the experimental part: Surface plasmon resonance. For murine mAbs, binding to human and cynomolgus AXL ECD was assessed using a Biacore T200 instrument. Briefly, either anti-mouse or anti-human Fc antibody was immobilized on a research-grade CM5 series S sensor chip using amine coupling in acetate buffer. Murine or recombinant chimeric murine-human mAbs (mouse VH/VL; human constant regions) were captured, then recombinant human or cyno AXL ECD was flowed over the surface at different concentration ranges (0.1-500 nM) depending on the antibody. The running buffer was PBS/Tween-20 and the flow rate 100 uL/min. All binding studies were performed at 25° C. Surfaces were regenerated using 10 mM glycine, pH 1.5.
Background: SPR reads the build-up and loss of mass on a sensor chip optically.

For assay [4], the target named is T3, mouse AXL extracellular domain (Sino cat. 51026-M08H) (mouse, UniProt Q00993 19-445).
T3 construct: extracellular domain; Bought protein; also called mouse AXL ECD
T3 sequence (looked up): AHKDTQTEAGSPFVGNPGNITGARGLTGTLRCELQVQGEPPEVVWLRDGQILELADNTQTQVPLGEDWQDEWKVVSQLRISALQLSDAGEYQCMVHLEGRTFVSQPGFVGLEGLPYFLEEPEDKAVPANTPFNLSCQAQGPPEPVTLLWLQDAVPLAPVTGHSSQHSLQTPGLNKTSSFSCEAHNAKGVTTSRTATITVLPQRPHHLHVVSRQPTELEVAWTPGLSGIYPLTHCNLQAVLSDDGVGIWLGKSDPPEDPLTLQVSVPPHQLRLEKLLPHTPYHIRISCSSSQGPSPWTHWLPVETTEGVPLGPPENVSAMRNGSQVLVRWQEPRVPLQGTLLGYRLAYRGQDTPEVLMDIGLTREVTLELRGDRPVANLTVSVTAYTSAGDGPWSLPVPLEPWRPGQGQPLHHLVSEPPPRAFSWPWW
In words: ELISA on coated mouse AXL ECD (100 ng/well), VHH-Fc. As for the experimental part: ELISA. ELISAs against human, cyno and mouse AXL ECDs were conducted by immobilizing 100 ng of each protein in wells of Nunc MaxiSorp microplates overnight. Human AXL (aa 1-451) and cyno AXL (aa 1-449) were produced recombinantly as described in Example 10. Mouse AXL was purchased from Sino (cat. 51026-M08H). The next day, plates were blocked with 5% (w/v) dried milk in PBS. Murine mAbs (either hybridoma- or recombinantly-produced) or VHH-Fcs were diluted in PBS containing 1% BSA and 0.1% Tween-20 and added to wells for 2 hours at room temperature. Wells were washed 5× with PBS containing 0.1% Tween-20, then HRP-labeled protein A (diluted 1:1000 in PBS containing 1% BSA and 0.1% Tween™-20) was added to wells for 1 hour at room temperature. Wells were washed again 5× with PBS/0.1% Tween-20 and developed using TMB substrate. Absorbance was measured at 450 nm. As a positive control for mouse AXL binding, a commercial anti-mouse AXL mAb (clone 175128, R&D Systems MAB8541, rat IgG2A) was used and detected with donkey […] secondary antibody.

The koff is a measure of how fast the partners let go of each other. The term kon denotes the second-order rate constant of association.

B1: hFC-F107-10G1 (antibody, human IgG1, kappa, V domains shown)
VH: EVNLVESGGGVVKPGASLKLSCEASGFTFSNYGMSWVRQTSDKRLEWVASISGGGGRTYYLDNVKGRFIISRENAKNTLYLQMSSLKSEDTALFYCARGARASYFAMDYWGQGSSVTVSS
VL: VIVMTQSHKFMSTSVGDRVSITCKASQDVTTAVAWYQQKPGQSPKLLIYWASTRHTGVPDRFTGSGSGTDYSLTISNVQTEDLAFYYCQQHFTTPLTFGAGTKLELKR
notes: Chimeric mAb, human IgG1 / human kappa constant regions; also called mAb F107-10G1
Regarding B1, in assay [1], the Kd amounted to 0.101 nM. Further, the Kd in assay [2] was 0.0608 nM. In addition, in assay [3], the Kd is 0.2 nM, the koff stood at 0.00023 s⁻¹ and the on-rate (kon) was found to be 1.8e+06 M⁻¹ s⁻¹.

B2: NRC-sdAb001-Fc (VHH-human IgG1 Fc fusion) (Fc fusion)
chain: QVKLEESGGGLVQAGGSLRLSCTASASISSFDIMGWYRQAPGKQRELVAAITTLDIANYRDSVKGRFTISRDNAKNTVYLQMDSLKPEDTARYHCAAFQSDQNYWGQGTQVTVSS
notes: VHH fused N-terminally to human IgG1 Fc, made in HEK293 cells; also called NRC-sdAb0001-Fc; NRC-sdAb001-hIgG1; not shown: human IgG1 Fc
As to B2, the binding result in assay [4] is reported as “no binding”.
